Publication PMC3279196 (Journal of Molecular Biology, 2011)
Like-named read-outs stand apart in the source and are kept apart here.

How the values were obtained:
[1] = molecular target: T1, CheW from Thermotoga maritima (T. maritima, UniProt Q56311 1-151); assay: NMR titration
T1 sequence (looked up): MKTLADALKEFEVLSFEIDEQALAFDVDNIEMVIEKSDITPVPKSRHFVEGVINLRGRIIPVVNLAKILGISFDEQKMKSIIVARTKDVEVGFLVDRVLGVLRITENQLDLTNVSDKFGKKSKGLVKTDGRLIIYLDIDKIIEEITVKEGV

static light scattering = molecular target: the molecule itself; assay: static light scattering
[2] = molecular target: T1, CheW from Thermotoga maritima; assay: NMR titration; remark: listed apart in the source

Kd [1]: ~1.2 mM | Kd [2]: ~300 µM
B1: TM0014(90-206) with N-terminal tyrosine and His5 tag (domain or fragment, T. maritima, UniProt Q7DFA3 90-206, looked up)
chain: KSGTNVDQIVERVKEASSQIGETLENIRSIEKLIQNIMRIARETNILALNATIEAARAGEAGKGFMIVANEVQNLSNETNEVTKQIVEKAREILESSQRSLENLEFMANLFETVGKT
stoichiometry N (static light scattering): 2
